Results on three substances are retold here after publication PMC6557989.

pKd: −log10 of the molar value.

The target in assay [1] is Protein H (Streptococcus pyogenes (strain AP1)). Briefly: MST; Monolith NT.115; Alexa-488-labelled Protein H constant at 0.5 nM, C4BP at 16 concentrations; 50 mM Tris-HCl pH 7.4, 150 mM NaCl, 10 mM MgCl2, 0.05% Tween-20; 37°C.
Target sequence in this assay (P50470 42-345 limits assumed): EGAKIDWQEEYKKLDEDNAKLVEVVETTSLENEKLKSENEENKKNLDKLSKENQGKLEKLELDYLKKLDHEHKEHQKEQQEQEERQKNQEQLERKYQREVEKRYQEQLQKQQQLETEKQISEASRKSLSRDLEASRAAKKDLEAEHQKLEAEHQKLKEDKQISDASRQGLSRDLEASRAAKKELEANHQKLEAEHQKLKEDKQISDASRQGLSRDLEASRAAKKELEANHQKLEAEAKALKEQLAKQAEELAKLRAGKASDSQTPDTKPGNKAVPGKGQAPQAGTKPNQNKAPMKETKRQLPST
The target of assay [2] is C4b-binding protein (C4BP), human, purified from plasma (human) (UniProt P04003). Briefly: SEC; Superose 6 10/30, PBS, ambient temperature; 0.25 nmol C4BP with varying amounts of Protein H, pre-incubated 30 min at room temperature; area of the free Protein H peak fitted.
Chain of C4b-binding protein (C4BP), human, purified from plasma (human) (P04003 49-597, chain 1 of 2): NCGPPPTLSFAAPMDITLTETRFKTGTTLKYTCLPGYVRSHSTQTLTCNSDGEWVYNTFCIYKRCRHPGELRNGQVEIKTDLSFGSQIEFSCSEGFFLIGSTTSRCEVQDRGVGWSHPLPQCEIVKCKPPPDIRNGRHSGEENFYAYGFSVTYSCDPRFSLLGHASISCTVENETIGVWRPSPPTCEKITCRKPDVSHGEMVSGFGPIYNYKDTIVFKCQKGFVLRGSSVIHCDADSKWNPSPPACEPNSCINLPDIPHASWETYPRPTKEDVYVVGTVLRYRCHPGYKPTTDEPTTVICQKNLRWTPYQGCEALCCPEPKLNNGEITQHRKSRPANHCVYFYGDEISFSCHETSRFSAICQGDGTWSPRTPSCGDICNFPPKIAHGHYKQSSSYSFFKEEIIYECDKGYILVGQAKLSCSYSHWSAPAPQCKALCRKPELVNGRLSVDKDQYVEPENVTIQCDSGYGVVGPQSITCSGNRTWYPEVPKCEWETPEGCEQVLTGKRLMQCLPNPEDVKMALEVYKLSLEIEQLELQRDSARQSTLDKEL
Chain of C4b-binding protein (C4BP), human, purified from plasma (human) (P20851 18-252, chain 2 of 2, further chain): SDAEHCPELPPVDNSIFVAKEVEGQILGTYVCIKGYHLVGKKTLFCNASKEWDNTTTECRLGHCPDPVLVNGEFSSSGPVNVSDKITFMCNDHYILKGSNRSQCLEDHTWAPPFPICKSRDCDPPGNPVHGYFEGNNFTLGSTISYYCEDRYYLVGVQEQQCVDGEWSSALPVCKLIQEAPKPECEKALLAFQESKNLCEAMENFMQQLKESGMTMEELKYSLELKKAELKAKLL
Assay [3] has as its target Protein H (Streptococcus pyogenes (strain AP1)). Briefly: SEC; Superose 6 10/30; 5 nmol Protein H alone at 8°C and 28°C; column calibrated with high molecular weight markers; monomer to dimer.
Assay [4] addresses Protein H on the surface of Streptococcus pyogenes AP1 (Streptococcus pyogenes (endogenous in strain AP1)).

Chain of C4b-binding protein (C4BP), human, purified from plasma (P04003 49-597): as the sequence (P04003 49-597, chain 1 of 2) above
Chain of C4b-binding protein (C4BP), human, purified from plasma (P20851 18-252): as the sequence (P20851 18-252, chain 2 of 2, further chain) above

A word on the pKd: it is −log10 of the Kd, conventionally taken in molar units. Low readings indicate a high Kd, high ones a low Kd. For “C4b-binding protein (C4BP), human, purified from plasma (from UniProt P04003 49-597; P20851 18-252) (complex)”, the pKd in assay [1] is 6.74.

Usually stoichiometry N stands for the number of molecules, sites or subunits per partner or assembly. Protein H (natural protein) displayed a stoichiometry N (Protein H monomers per C4BP) in assay [2] of 26. Moreover, the stoichiometry N in assay [3] worked out at 2.

Consider “Protein H on the surface of Streptococcus pyogenes AP1 (natural protein)”, for which, in assay [4], the aggregation of S. pyogenes AP1 grown overnight at 35°C, 37°C or 41°C (OD600 before against after vortexing); at 41°C all bacteria remained dispersed is 70%.
